# Results published in patent US11833164B2, “Methods of treating Fabry disease in patients having a mutation in the GLA gene” (Amicus Therapeutics, Inc., priority 2019, dated 2023).
# B1: F159L (protein)
# chain: MQLRNPELHLGCALALRFLALVSWDIPGARALDNGLARTPTMGWLHWERFMCNLDCQEEPDSCISEKLFMEMAELMVSEGWKDAGYEYLCIDDCWMAPQRDSEGRLQADPQRFPHGIRQLANYVHSKGLKLGIYADVGNKTCAGFPGSFGYYDIDAQTLADWGVDLLKFDGCYCDSLENLADGYKHMSLALNRTGRSIVYSCEWPLYMWPFQKPNYTEIRQYCNHWRNFADIDDSWKSIKSILDWTSFNQERIVDVAGPGGWNDPDMLVIGNFGLSWNQQVTQMALWAIMAAPLFMSNDLRHISPQAKALLQDKDVIAINQDPLGKQGYQLRQGDNFEVWERPLSGLAWAVAMINRQEIGGPRSYTIAVASLGKGVACNPACFITQLLPVKRKLGFYEWTSRLRSHINPTGTVLLQLENTMQMSLKDLL
# B2: A160S (protein)
# chain: MQLRNPELHLGCALALRFLALVSWDIPGARALDNGLARTPTMGWLHWERFMCNLDCQEEPDSCISEKLFMEMAELMVSEGWKDAGYEYLCIDDCWMAPQRDSEGRLQADPQRFPHGIRQLANYVHSKGLKLGIYADVGNKTCAGFPGSFGYYDIDAQTFSDWGVDLLKFDGCYCDSLENLADGYKHMSLALNRTGRSIVYSCEWPLYMWPFQKPNYTEIRQYCNHWRNFADIDDSWKSIKSILDWTSFNQERIVDVAGPGGWNDPDMLVIGNFGLSWNQQVTQMALWAIMAAPLFMSNDLRHISPQAKALLQDKDVIAINQDPLGKQGYQLRQGDNFEVWERPLSGLAWAVAMINRQEIGGPRSYTIAVASLGKGVACNPACFITQLLPVKRKLGFYEWTSRLRSHINPTGTVLLQLENTMQMSLKDLL
# B3: A160G (protein)
# chain: MQLRNPELHLGCALALRFLALVSWDIPGARALDNGLARTPTMGWLHWERFMCNLDCQEEPDSCISEKLFMEMAELMVSEGWKDAGYEYLCIDDCWMAPQRDSEGRLQADPQRFPHGIRQLANYVHSKGLKLGIYADVGNKTCAGFPGSFGYYDIDAQTFGDWGVDLLKFDGCYCDSLENLADGYKHMSLALNRTGRSIVYSCEWPLYMWPFQKPNYTEIRQYCNHWRNFADIDDSWKSIKSILDWTSFNQERIVDVAGPGGWNDPDMLVIGNFGLSWNQQVTQMALWAIMAAPLFMSNDLRHISPQAKALLQDKDVIAINQDPLGKQGYQLRQGDNFEVWERPLSGLAWAVAMINRQEIGGPRSYTIAVASLGKGVACNPACFITQLLPVKRKLGFYEWTSRLRSHINPTGTVLLQLENTMQMSLKDLL
# B4: A160V (protein)
# chain: MQLRNPELHLGCALALRFLALVSWDIPGARALDNGLARTPTMGWLHWERFMCNLDCQEEPDSCISEKLFMEMAELMVSEGWKDAGYEYLCIDDCWMAPQRDSEGRLQADPQRFPHGIRQLANYVHSKGLKLGIYADVGNKTCAGFPGSFGYYDIDAQTFVDWGVDLLKFDGCYCDSLENLADGYKHMSLALNRTGRSIVYSCEWPLYMWPFQKPNYTEIRQYCNHWRNFADIDDSWKSIKSILDWTSFNQERIVDVAGPGGWNDPDMLVIGNFGLSWNQQVTQMALWAIMAAPLFMSNDLRHISPQAKALLQDKDVIAINQDPLGKQGYQLRQGDNFEVWERPLSGLAWAVAMINRQEIGGPRSYTIAVASLGKGVACNPACFITQLLPVKRKLGFYEWTSRLRSHINPTGTVLLQLENTMQMSLKDLL
# B5: F159Y (protein)
# chain: MQLRNPELHLGCALALRFLALVSWDIPGARALDNGLARTPTMGWLHWERFMCNLDCQEEPDSCISEKLFMEMAELMVSEGWKDAGYEYLCIDDCWMAPQRDSEGRLQADPQRFPHGIRQLANYVHSKGLKLGIYADVGNKTCAGFPGSFGYYDIDAQTYADWGVDLLKFDGCYCDSLENLADGYKHMSLALNRTGRSIVYSCEWPLYMWPFQKPNYTEIRQYCNHWRNFADIDDSWKSIKSILDWTSFNQERIVDVAGPGGWNDPDMLVIGNFGLSWNQQVTQMALWAIMAAPLFMSNDLRHISPQAKALLQDKDVIAINQDPLGKQGYQLRQGDNFEVWERPLSGLAWAVAMINRQEIGGPRSYTIAVASLGKGVACNPACFITQLLPVKRKLGFYEWTSRLRSHINPTGTVLLQLENTMQMSLKDLL
# B6: D161H (protein)
# chain: MQLRNPELHLGCALALRFLALVSWDIPGARALDNGLARTPTMGWLHWERFMCNLDCQEEPDSCISEKLFMEMAELMVSEGWKDAGYEYLCIDDCWMAPQRDSEGRLQADPQRFPHGIRQLANYVHSKGLKLGIYADVGNKTCAGFPGSFGYYDIDAQTFAHWGVDLLKFDGCYCDSLENLADGYKHMSLALNRTGRSIVYSCEWPLYMWPFQKPNYTEIRQYCNHWRNFADIDDSWKSIKSILDWTSFNQERIVDVAGPGGWNDPDMLVIGNFGLSWNQQVTQMALWAIMAAPLFMSNDLRHISPQAKALLQDKDVIAINQDPLGKQGYQLRQGDNFEVWERPLSGLAWAVAMINRQEIGGPRSYTIAVASLGKGVACNPACFITQLLPVKRKLGFYEWTSRLRSHINPTGTVLLQLENTMQMSLKDLL
# B7: A160T (protein)
# chain: MQLRNPELHLGCALALRFLALVSWDIPGARALDNGLARTPTMGWLHWERFMCNLDCQEEPDSCISEKLFMEMAELMVSEGWKDAGYEYLCIDDCWMAPQRDSEGRLQADPQRFPHGIRQLANYVHSKGLKLGIYADVGNKTCAGFPGSFGYYDIDAQTFTDWGVDLLKFDGCYCDSLENLADGYKHMSLALNRTGRSIVYSCEWPLYMWPFQKPNYTEIRQYCNHWRNFADIDDSWKSIKSILDWTSFNQERIVDVAGPGGWNDPDMLVIGNFGLSWNQQVTQMALWAIMAAPLFMSNDLRHISPQAKALLQDKDVIAINQDPLGKQGYQLRQGDNFEVWERPLSGLAWAVAMINRQEIGGPRSYTIAVASLGKGVACNPACFITQLLPVKRKLGFYEWTSRLRSHINPTGTVLLQLENTMQMSLKDLL
# B8: D161N (protein)
# chain: MQLRNPELHLGCALALRFLALVSWDIPGARALDNGLARTPTMGWLHWERFMCNLDCQEEPDSCISEKLFMEMAELMVSEGWKDAGYEYLCIDDCWMAPQRDSEGRLQADPQRFPHGIRQLANYVHSKGLKLGIYADVGNKTCAGFPGSFGYYDIDAQTFANWGVDLLKFDGCYCDSLENLADGYKHMSLALNRTGRSIVYSCEWPLYMWPFQKPNYTEIRQYCNHWRNFADIDDSWKSIKSILDWTSFNQERIVDVAGPGGWNDPDMLVIGNFGLSWNQQVTQMALWAIMAAPLFMSNDLRHISPQAKALLQDKDVIAINQDPLGKQGYQLRQGDNFEVWERPLSGLAWAVAMINRQEIGGPRSYTIAVASLGKGVACNPACFITQLLPVKRKLGFYEWTSRLRSHINPTGTVLLQLENTMQMSLKDLL
# B9: F159V (protein)
# chain: MQLRNPELHLGCALALRFLALVSWDIPGARALDNGLARTPTMGWLHWERFMCNLDCQEEPDSCISEKLFMEMAELMVSEGWKDAGYEYLCIDDCWMAPQRDSEGRLQADPQRFPHGIRQLANYVHSKGLKLGIYADVGNKTCAGFPGSFGYYDIDAQTVADWGVDLLKFDGCYCDSLENLADGYKHMSLALNRTGRSIVYSCEWPLYMWPFQKPNYTEIRQYCNHWRNFADIDDSWKSIKSILDWTSFNQERIVDVAGPGGWNDPDMLVIGNFGLSWNQQVTQMALWAIMAAPLFMSNDLRHISPQAKALLQDKDVIAINQDPLGKQGYQLRQGDNFEVWERPLSGLAWAVAMINRQEIGGPRSYTIAVASLGKGVACNPACFITQLLPVKRKLGFYEWTSRLRSHINPTGTVLLQLENTMQMSLKDLL
# Test system: mutant form of α-Gal A expressed in HEK-293 cells
# Assay: HEK assay (GLP HEK / Migalastat Amenability Assay): α-Gal A activity in lysates of transiently transfected HEK-293 cells incubated with or without 10 μM migalastat
# Format: cell-based, human
# Details: for Absolute increase (% WT): 10 μM migalastat versus baseline; for Relative increase: 10 μM migalastat α-Gal A activity relative to baseline; for 10 μM migalastat α-Gal A activity (% WT): 5 days; for 10 μM migalastat α-Gal A activity (% WT) / Baseline α-Gal A activity (% WT): percentage of baseline wild-type α-Gal A activity; for 10 μM migalastat α-Gal A activity (% WT) / Baseline α-Gal A activity (% WT) / Baseline α-Gal A activity / 10 μM migalastat α-Gal A activity: mean ± SEM; for Baseline α-Gal A activity (% WT): absence of migalastat; for Baseline α-Gal A activity / 10 μM migalastat α-Gal A activity: lysates of HEK-293 cells transfected with the mutant form; for Baseline α-Gal A activity: incubated 5 days in the absence of migalastat; for 10 μM migalastat α-Gal A activity: incubated 5 days with 10 μM migalastat
# In short: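 Activity reported as 4-MU released (nmol/mg/hr), mean±SEM, from lysates of transiently transfected HEK-293 cells expressing mutant α-Gal A, cultured with or without 10 μM migalastat.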
Molecule,Absolute increase (% WT),Relative increase,10 μM migalastat α-Gal A activity (% WT),Baseline α-Gal A activity (% WT),Baseline α-Gal A activity,10 μM migalastat α-Gal A activity
B1,28.0 % WT,1.4,103.6 ± 10.7 % WT,75.6 ± 8.4 % WT,22840 ± 1245 nmol/mg/h,31357 ± 1408 nmol/mg/h
B2,29.9 % WT,1.5,85.9 ± 6.3 % WT,56 ± 3.1 % WT,18308 ± 685 nmol/mg/h,27775 ± 1478 nmol/mg/h
B3,19.0 % WT,1.4,54.1 ± 5.3 % WT,35.1 ± 3.7 % WT,13634 ± 2705 nmol/mg/h,19647 ± 3137 nmol/mg/h
B4,21.9 % WT,1.4,66 ± 4.8 % WT,44.1 ± 2.7 % WT,15511 ± 1847 nmol/mg/h,22124 ± 1885 nmol/mg/h
B5,22.4 % WT,3.9,30.1 ± 1.7 % WT,7.7 ± 0.7 % WT,2573 ± 301 nmol/mg/h,10052 ± 825 nmol/mg/h
B6,15.5 % WT,1.2,77 ± 3.8 % WT,61.5 ± 2.9 % WT,21949 ± 2587 nmol/mg/h,26457 ± 2512 nmol/mg/h
B7,31.3 % WT,1.4,90.9 ± 8.1 % WT,59.6 ± 3.5 % WT,20193 ± 1713 nmol/mg/h,29082 ± 1980 nmol/mg/h
B8,14.1 % WT,1.2,68.7 ± 4.9 % WT,54.5 ± 4.3 % WT,19553 ± 2838 nmol/mg/h,24298 ± 3201 nmol/mg/h
B9,29.8 % WT,1.6,80.7 ± 4.8 % WT,50.9 ± 2.9 % WT,16474 ± 1048 nmol/mg/h,26241 ± 1907 nmol/mg/h
